Assay results: US20240052065A1 (Boehringer Ingelheim, published 2024)
Substitutions are numbered along the chain they refer to. One block for each binder: values may come before it.

Experiments:
[1] = target: T1, recombinant human CDH3 [EC1-EC2] (human, UniProt P22223 108-328, limits assumed); experiment: SPR (ProteOn XPR36), bispecific captured on protein A/G, CDH3 as analyte, 1:1 Langmuir fit
T1 construct: also called HuCDH3 EC1-EC2
Protocol: (§1) The binding affinity of purified CDH3/TRAILR2 bispecific constructs for recombinant human CDH3 (either full-length, EC1-EC2 or EC2-EC3) was determined by Surface Plasmon Resonance (SPR), using a ProteOn XPR36 instrument (Bio-Rad). The running buffer and all dilutions (except where stated) were done in PBS-TEDTA. The GLM sensor chip (Bio-Rad) was normalized and pre-conditioned as per the manufacturers recommendations. The sensor chip was activated with equal mixture of EDC/s-NHS in the horizontal direction for 300 sec at a flow rate of 30 μl/min and immobilized with protein A/G (60 μg/ml in 10 mM acetate pH 4.5) in the horizontal direction for 300 sec at a flowrate of 30 μl/min resulting in 5000 RU of protein A/G on the surface. The sensor chip was deactivated with 1 M ethanolamine HCl in the horizontal direction for 300 sec at a flowrate of 30 μl/min.
(§2) For binding kinetic determination to CDH3, bispecific molecules were captured individually on the protein A/G surface vertically for 150 sec at a flowrate of 30 μl/min. The baseline was stabilized by injecting PBS-T-EDTA for 60 sec at a flowrate of 100 μl/min horizontally. The analyte (human full-length CDH3, CDH3 [EC1-EC2] or CDH3 [EC2-EC3]) was injected horizontally over the captured antibody for 300 sec at a flowrate of 30 μl/min and a dissociation for 1200 sec. The concentration of the analytes injected was 200 nM for the full-length CDH3 and 500 nM for EC1-EC2 and EC2-EC3.

[2] = target: T2, recombinant human CDH3, full-length (human, UniProt P22223 108-654, limits assumed); experiment: as above
T2 construct: also called HuCDH3 full-length; human full-length CDH3
Protocol: as §1, §2

[3] = target: T3, recombinant human CDH3 [EC2-EC3] (human, UniProt P22223 216-440, limits assumed); experiment: SPR (ProteOn XPR36), bispecific captured on protein A/G, CDH3 EC2-EC3 as analyte
T3 construct: no separate entry is named for EC3; also called HuCDH3_EC2-EC3; EC2-EC3 peptide

Kd [1]: 11.4 nM
Kd [2]: 9.93 nM
binding result [3]: no binding (tested: 500 nM analyte)
B1: bispecific binding molecule CDH3/TRAILR2v2 (bispecific antibody, human IgG1, kappa, L234A L235A)
heavy: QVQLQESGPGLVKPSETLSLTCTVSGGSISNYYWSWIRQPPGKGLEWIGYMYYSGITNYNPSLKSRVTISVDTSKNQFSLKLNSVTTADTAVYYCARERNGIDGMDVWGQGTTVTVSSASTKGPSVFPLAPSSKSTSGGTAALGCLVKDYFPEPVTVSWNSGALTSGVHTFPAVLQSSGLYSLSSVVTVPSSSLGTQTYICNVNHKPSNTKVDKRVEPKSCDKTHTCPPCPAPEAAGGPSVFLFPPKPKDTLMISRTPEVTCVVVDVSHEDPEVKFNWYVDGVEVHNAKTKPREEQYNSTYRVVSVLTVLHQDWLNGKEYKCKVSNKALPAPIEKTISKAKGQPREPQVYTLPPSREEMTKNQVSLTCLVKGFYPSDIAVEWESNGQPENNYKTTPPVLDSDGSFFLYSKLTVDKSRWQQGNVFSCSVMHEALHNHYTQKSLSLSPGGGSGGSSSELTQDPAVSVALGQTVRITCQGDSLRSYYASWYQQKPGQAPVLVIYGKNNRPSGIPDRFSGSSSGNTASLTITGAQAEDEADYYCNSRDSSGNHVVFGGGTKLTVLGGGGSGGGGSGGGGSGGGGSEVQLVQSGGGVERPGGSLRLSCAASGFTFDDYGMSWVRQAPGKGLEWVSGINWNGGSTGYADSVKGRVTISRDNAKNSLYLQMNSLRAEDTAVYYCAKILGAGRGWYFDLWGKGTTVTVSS
light: DIVMTQSPLSLPVTPGEPASISCRSSQSLLHSYGYNYLDWYLQKPGQSPQLLIYLGSNRASGVPDRFSGSGSGTDFTLKISRVEAEDFGIYYCMQALQTPITFGQGTRLEIKRTVAAPSVFIFPPSDEQLKSGTASVVCLLNNFYPREAKVQWKVDNALQSGNSQESVTEQDSKDSTYSLSSTLTLSKADYEKHKVYACEVTHQGLSSPVTKSFNRGEC
notes: also called CDH3/TR2v2

Kd [1]: 0.85 nM
Kd [2]: 1.08 nM
binding result [3]: no binding (tested: 500 nM analyte)
B2: bispecific binding molecule CDH3/TRAILR2v3 (bispecific antibody, human IgG1, kappa, L234A L235A)
heavy: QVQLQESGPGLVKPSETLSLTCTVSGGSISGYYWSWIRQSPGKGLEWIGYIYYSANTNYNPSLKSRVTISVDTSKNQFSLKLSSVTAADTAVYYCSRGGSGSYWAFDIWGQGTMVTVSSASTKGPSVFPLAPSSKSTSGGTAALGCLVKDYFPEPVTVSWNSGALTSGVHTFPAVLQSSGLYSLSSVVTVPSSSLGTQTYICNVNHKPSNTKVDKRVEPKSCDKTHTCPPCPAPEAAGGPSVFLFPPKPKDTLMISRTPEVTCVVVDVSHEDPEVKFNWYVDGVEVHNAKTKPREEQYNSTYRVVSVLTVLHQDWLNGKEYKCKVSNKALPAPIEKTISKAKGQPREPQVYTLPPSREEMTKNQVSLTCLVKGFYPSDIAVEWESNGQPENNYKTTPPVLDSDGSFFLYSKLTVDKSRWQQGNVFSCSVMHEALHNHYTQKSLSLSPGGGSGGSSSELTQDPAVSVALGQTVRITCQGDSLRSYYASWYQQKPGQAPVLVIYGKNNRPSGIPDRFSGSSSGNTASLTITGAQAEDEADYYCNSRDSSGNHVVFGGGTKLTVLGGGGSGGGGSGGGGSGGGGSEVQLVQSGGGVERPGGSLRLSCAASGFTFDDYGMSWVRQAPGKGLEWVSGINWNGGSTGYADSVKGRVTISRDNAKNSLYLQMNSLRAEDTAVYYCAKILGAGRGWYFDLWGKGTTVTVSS
light: B1 light with L30M, H31Y, F88V, I101P, R108K, L109V
notes: also called CDH3/TR2v3
